Experimental findings from patent publication US20240116985A1 (published 2024) are described below.

Starred links: 1 amine or outer side, 2 acyl side, 3 side chain; linkers in the order of their positions; H or OH if unused. Positions of bridges follow the written chain, without caps; N, C: chain ends. Non-standard residues stand in square brackets, D forms with d. Primed or numbered codes have the meaning given here. *: point of attachment. PyrS2″ = (S)-3-amino-1-((pent-4-en-1-yloxy)carbonyl)pyrrolidine-3-carboxylic acid (stapling residue), C=CCCCOC(=O)N1CC[C@@](N[*:1])(C(=O)[*:2])C1; (RDMAPyr)GlnR = (S)-2-amino-5-((R)-3-(dimethylamino)pyrrolidin-1-yl)-5-oxopentanoic acid, CN(C)[C@@H]1CCN(C(=O)CC[C@H](N[*:1])C(=O)[*:2])C1; B5(5) = 2,2-bis(4-pentenyl)glycine, 2-amino-2-(pent-4-en-1-yl)hept-6-enoic acid (stitching residue), C=CCCCC(CCCC=C)(N[*:1])C(=O)[*:2]; TfeGA = (S)-2-amino-3-((carboxymethyl)(2,2,2-trifluoroethyl)amino)propanoic acid, O=C([C@H](CN(CC(=O)[*:3])CC(F)(F)F)N[*:1])[*:2]; PyrS2 = (S)-3-amino-1-((pent-4-en-1-yloxy)carbonyl)pyrrolidine-3-carboxylic acid, C=CCCCOC(=O)N1CC[C@@](N[*:1])(C(=O)[*:2])C1; PyrS1 = (S)-3-amino-1-((but-3-en-1-yloxy)carbonyl)pyrrolidine-3-carboxylic acid, C=CCCOC(=O)N1CC[C@@](N[*:1])(C(=O)[*:2])C1; B5(12) = 2-amino-2-(pent-4-en-1-yl)hept-6-enoic acid (two olefin side chains), C=CCCCC(CCCC=C)(N[*:1])C(=O)[*:2]; B5(19) = 2-amino-2-(pent-4-en-1-yl)hept-6-enoic acid (bis(4-pentenyl)glycine), C=CCCCC(CCCC=C)(N[*:1])C(=O)[*:2]; B5(3) = 2,2-bis(4-pentenyl)glycine (stitching residue), C=CCCCC(CCCC=C)(N[*:1])C(=O)[*:2]; Phe(3-COOH) = N[C@@H](Cc1cccc(C(=O)O)c1)C(=O)O; Phe(2-Cl) = N[C@@H](Cc1ccccc1Cl)C(=O)O; Bta = N[C@@H](Cc1csc2ccccc12)C(=O)O; Lys(iPr) = CC(C)NCCCC[C@H](N)C(=O)O; αAllylPro = C=CC[C@@]1(C(=O)O)CCCN1; tBuAla = CC(C)(C)C[C@H](N)C(=O)O; 3Thi = N[C@@H](Cc1ccsc1)C(=O)O; Thr(ol) = C[C@@H](O)[C@H](N)CO; Cba = N[C@@H](CC1CCC1)C(=O)O; PyrS2(4) = not defined here; S5 = C=CCCC[C@](C)(N)C(=O)O; Prolinol = OC[C@@H]1CCCN1*; Aib = CC(C)(N)C(=O)O

Assay [1] has as its target T1, B-cat-Halo (beta-catenin HaloTag NanoBRET construct expressed in HEK293 cells) (UniProt P35222 1-781).
T1 sequence (looked up): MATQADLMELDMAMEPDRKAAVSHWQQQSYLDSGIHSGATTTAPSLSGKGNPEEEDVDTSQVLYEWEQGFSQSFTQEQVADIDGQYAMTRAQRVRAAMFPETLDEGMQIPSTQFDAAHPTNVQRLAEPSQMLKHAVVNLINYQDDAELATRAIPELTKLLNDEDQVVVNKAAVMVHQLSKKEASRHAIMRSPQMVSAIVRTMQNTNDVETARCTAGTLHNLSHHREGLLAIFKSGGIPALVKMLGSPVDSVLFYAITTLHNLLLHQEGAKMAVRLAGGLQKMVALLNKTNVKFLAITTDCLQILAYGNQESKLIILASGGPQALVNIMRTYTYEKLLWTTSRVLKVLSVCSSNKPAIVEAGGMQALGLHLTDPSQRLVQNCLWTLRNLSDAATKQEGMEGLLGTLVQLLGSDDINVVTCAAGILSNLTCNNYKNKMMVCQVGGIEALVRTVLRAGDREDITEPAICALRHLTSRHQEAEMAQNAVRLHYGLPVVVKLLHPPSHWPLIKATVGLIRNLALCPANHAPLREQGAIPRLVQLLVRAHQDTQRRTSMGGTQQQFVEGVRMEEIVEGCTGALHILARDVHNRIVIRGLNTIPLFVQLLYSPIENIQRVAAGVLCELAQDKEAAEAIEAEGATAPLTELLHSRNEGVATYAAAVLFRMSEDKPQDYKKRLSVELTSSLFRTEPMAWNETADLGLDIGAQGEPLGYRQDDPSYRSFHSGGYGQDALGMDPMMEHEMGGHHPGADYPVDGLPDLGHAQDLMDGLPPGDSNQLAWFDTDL
The assay can be described thus: cell-based or functional assay.

Assay [2] concerns the target T2, B-cat-Halo (beta-catenin HaloTag NanoBRET construct expressed in HEK293 cells) (UniProt P35222 1-781, HaloTag NanoBRET 618 Ligand bound in the assay).
T2 sequence (looked up): T1 sequence (looked up)
In words: cell-based or functional assay.

B1: I-1902 (peptide)
peptide: Ac-[αAllylPro]D[tBuAla][B5(5)]D[Phe(3-COOH)]SAFL[PyrS2(4)][Phe(2-Cl)][Bta]S-NH2
modifications: staple 1-4, 4-11; not fully specified; printed as Ac-PL3-Asp-Npg-B5-Asp-3COOHF-Ser-Ala-Phe-Leu-PyrS2-2C1F-BztA-Ser-NH2; reading uncertain
Take B1: in assay [1], the “NanoBRET Abs IC50” value came out at 7.7 µM.

B2: I-1807 (peptide)
peptide: Ac-[αAllylPro]D[tBuAla][S5]DDAAFL[Aib][3Thi][Bta]Q-NH2
modifications: staple 1-4; not fully specified; printed as Ac-PL3-Asp-Npg-S5-Asp-Asp-Ala-Ala-Phe-Leu-Aib-3Thi-BztA-Gln-NH2
Regarding B2, the “NanoBRET Abs IC50” value in assay [2] was > 20 µM.

B3: I-1912 (peptide)
peptide: Ac-[αAllylPro]D[tBuAla][B5(5)]D[Phe(3-COOH)]QAFL[PyrS2(4)][3Thi][Bta]F-NH2
modifications: staple 1-4, 4-11; not fully specified; printed as Ac-PL3-Asp-Npg-B5-Asp-3COOHF-Gln-Ala-Phe-Leu-PyrS2-3Thi-BztA-Phe-NH2; reading uncertain
For the molecule B3, the “NanoBRET Abs IC50” value in assay [1] worked out at 11.5 µM.

B4: I-1901 (peptide)
peptide: Ac-[αAllylPro]D[tBuAla][B5(5)]D[Phe(3-COOH)]SAFL[PyrS2][Phe(2-Cl)][Bta]S-NH2
modifications: staple 1-4, 4-11; not fully specified; printed as Ac-PL3-Asp-Npg-B5-Asp-3COOHF-Ser-Ala-Phe-Leu-PyrS2-2C1F-BztA-Ser-NH2
For the molecule B4, the “NanoBRET Abs IC50” value in assay [1] is 4.9 µM.

B5: I-1904 (peptide)
peptide: Ac-[αAllylPro]D[tBuAla][B5(12)]D[Phe(3-COOH)]AAFL[PyrS2(4)][Phe(2-Cl)][Bta]N-NH2
modifications: staple 1-4, 4-11; not fully specified; printed as Ac-PL3-Asp-Npg-B5-Asp-3COOHF-Ala-Ala-Phe-Leu-PyrS2-2C1F-BztA-Asn-NH2; reading uncertain
On to B5, for which the “NanoBRET Abs IC50” value in assay [1] was determined as 4.2 µM.

B6: I-1906 (peptide)
peptide: Ac-[αAllylPro]D[tBuAla][B5(12)]D[Phe(3-COOH)]AAFL[PyrS2(4)][Phe(2-Cl)][Bta]S-Prolinol
modifications: staple 1-4, 4-11; not fully specified; printed as Ac-PL3-Asp-Npg-B5-Asp-3COOHF-Ala-Ala-Phe-Leu-PyrS2-2C1F-BztA-Ser-Prool; reading uncertain
Consider B6, for which the “NanoBRET Abs IC50” value in assay [1] is 15.5 µM.

B7: I-1903 (peptide)
peptide: Ac-[αAllylPro]D[tBuAla][B5(12)]D[Phe(3-COOH)]AAFS[PyrS2(4)][Phe(2-Cl)][Bta]S-NH2
modifications: staple 1-4, 4-11; not fully specified; printed as Ac-PL3-Asp-Npg-B5-Asp-3COOHF-Ala-Ala-Phe-Ser-PyrS2-2C1F-BztA-Ser-NH2; reading uncertain
B7: in assay [1], the “NanoBRET Abs IC50” value came out at 6.4 µM.

B8: I-1905 (peptide)
peptide: Ac-[αAllylPro]D[tBuAla][B5(12)]D[Phe(3-COOH)]AAFL[PyrS2(4)][Phe(2-Cl)][Bta]S[Thr(ol)]
modifications: staple 1-4, 4-11; not fully specified; printed as Ac-PL3-Asp-Npg-B5-Asp-3COOHF-Ala-Ala-Phe-Leu-PyrS2-2C1F-BztA-Ser-Thro1; reading uncertain
Take B8: the “NanoBRET Abs IC50” value in assay [1] turned out to be 9.7 µM.

B9: I-1890 (peptide)
peptide: Ac-[αAllylPro]D[tBuAla][B5(5)]DRAAFN[PyrS2][3Thi][Bta]Q-NH2
modifications: staple 1-4, 4-11; not fully specified; printed as Ac-PL3-Asp-Npg-B5-Asp-Arg-Ala-Ala-Phe-Asn-PyrS2-3Thi-BztA-Gln-NH2
With B9, the “NanoBRET Abs IC50” value in assay [1] is > 20 µM.

B10: I-1909 (peptide)
peptide: Ac-[αAllylPro]D[tBuAla][B5(12)]D[Phe(3-COOH)][Lys(iPr)]AFL[PyrS2(4)][3Thi][Bta]F-NH2
modifications: staple 1-4, 4-11; not fully specified; printed as Ac-PL3-Asp-Npg-B5-Asp-3COOHF-iPrLys-Ala-Phe-Leu-PyrS2-3Thi-BztA-Phe-NH2; reading uncertain
B10: in assay [1], the “NanoBRET Abs IC50” value was > 20 µM.

B11: I-1815 (peptide)
peptide: Ac-[αAllylPro]D[tBuAla][B5(19)]DDAAFL[PyrS1][3Thi][Bta]Q-NH2
modifications: staple 1-4, 4-11; not fully specified; printed as Ac-PL3-Asp-Npg-B5-Asp-Asp-Ala-Ala-Phe-Leu-PyrS1-3Thi-BztA-Gln-NH2
B11: in assay [2], the “NanoBRET Abs IC50” value was > 20 µM.

B12: I-1805 (peptide)
peptide: Ac-[αAllylPro]D[tBuAla][B5(3)]D[TfeGA]AAFL[PyrS2″][3Thi][Bta][(RDMAPyr)GlnR]-NH2
modifications: staple 1-4, 4-11; not fully specified
As to B12, in assay [2], the “NanoBRET Abs IC50” value was found to be 9.3 µM.

B13: I-1891 (peptide)
peptide: Ac-[αAllylPro]D[tBuAla][B5(5)]DRAAFN[PyrS2][3Thi][Bta]Q-NH2
modifications: staple 1-4, 4-11; not fully specified; printed as Ac-PL3-Asp-Npg-B5-Asp-Arg-Ala-Ala-Phe-Asn-PyrS2-3Thi-BztA-Gln-NH2
With B13, the “NanoBRET Abs IC50” value in assay [1] was > 20 µM.

B14: I-1910 (peptide)
peptide: Ac-[αAllylPro]D[tBuAla][B5(12)]D[Phe(3-COOH)]HAFL[PyrS2(4)][3Thi][Bta]F-NH2
modifications: staple 1-4, 4-11; not fully specified; printed as Ac-PL3-Asp-Npg-B5-Asp-3COOHF-His-Ala-Phe-Leu-PyrS2-3Thi-BztA-Phe-NH2; reading uncertain
As for B14, the “NanoBRET Abs IC50” value in assay [1] stood at 13.8 µM.

B15: I-1898 (peptide)
peptide: Ac-[αAllylPro]D[tBuAla][B5(5)]D[Phe(3-COOH)]AAFL[PyrS2][Cba][Bta]S-NH2
modifications: staple 1-4, 4-11; not fully specified; printed as Ac-PL3-Asp-Npg-B5-Asp-3COOHF-Ala-Ala-Phe-Leu-PyrS2-Cba-BztA-Ser-NH2
Regarding B15, the “NanoBRET Abs IC50” value in assay [1] came to 10.9 µM.

B16: I-1911 (peptide)
peptide: Ac-[αAllylPro]D[tBuAla][B5(12)]D[Phe(3-COOH)]KAFL[PyrS2(4)][3Thi][Bta]F-NH2
modifications: staple 1-4, 4-11; not fully specified; printed as Ac-PL3-Asp-Npg-B5-Asp-3COOHF-Lys-Ala-Phe-Leu-PyrS2-3Thi-BztA-Phe-NH2; reading uncertain
B16: in assay [1], the “NanoBRET Abs IC50” value was > 20 µM.

B17: I-1813 (peptide)
peptide: Ac-[αAllylPro]D[tBuAla][B5(19)]DDAAFN[PyrS1][3Thi][Bta]Q-NH2
modifications: staple 1-4, 4-11; not fully specified; printed as Ac-PL3-Asp-Npg-B5-Asp-Asp-Ala-Ala-Phe-Asn-PyrS1-3Thi-BztA-Gln-NH2
B17: in assay [2], the “NanoBRET Abs IC50” value is > 20 µM.

B18: I-1808 (peptide)
peptide: Ac-[αAllylPro]D[tBuAla][B5(3)]DDAAFL[PyrS2″][3Thi][Bta]Q-NH2
modifications: staple 1-4, 4-11; also: staple olefins reduced to -CH2-CH2-
Regarding B18, the “NanoBRET Abs IC50” value in assay [2] turned out to be 14 µM.
